Laboratory results from patent publication US20190010227A1 (WELSON PHARMACEUTICALS, published 2019).
Changes are numbered by the printed parent chain.

B1: Mouse monoclonal antibody LA22 (antibody, V domains shown)
VH: EVQLVESGGGLVQPGESLKLSCESNEYEFPSHDMSWVRKTPEERLELVAAITSDGISTYYPDTMERRFLISRDNTKKTLYLQMSSLRSEDTALYYCSRHDWDEGFASWGQGTLVTVSA
VL: DVVMTQTPLSLPVSLGDQASISCRSSQSLVHSNGNTYLHWYLQKPGQSPKLLIYKVSNRFSGVPDRFSGSGSGTDFTLKISRVEAEDLGIYFCSQSSHVPPAFGGGTKLEIK
notes: Mouse hybridoma antibody (ATCC deposit, US 5,459,061); the mouse constant regions are not; also called mLA22; mouse LA22
B2: Humanized LA22 (H3 + h2) (antibody, V domains shown)
VH: EVQLVESGGGLVQPGGSLRLSCASNEYEFPSHDMSWVRQTPGKGLEWVSAITSDGISTYYPDTMERRFTISRDNSKNTLYLQMSSLRAEDTAVYYCARHDWDEGFASWGQGTLVTVSS
VL: B1 VL with T7S, S14T, D17Q, Q18P, L42Q, K44R, K50R, L88V
notes: also called hLA22; hLA22 h2H3
B3: Humanized LA22 (H1 + h2) (antibody, human IgG1, V domains shown)
VH: B2 VH with A23E, T40A, S84N
VL: B1 VL with T7S, S14T, D17Q, Q18P, L42Q, K44R, K50R, L88V
notes: Human IgG1 / kappa constant regions; also called H1-LA22 / h2-LA22
B4: Humanized LA22 (H4 + h2) (antibody, human IgG1, V domains shown)
VH: B2 VH with G44R
VL: B1 VL with T7S, S14T, D17Q, Q18P, L42Q, K44R, K50R, L88V
notes: Human IgG1 / kappa constant regions; also called H4-LA22 / h2-LA22
B5: Humanized LA22 (H2 + h2) (antibody, human IgG1, V domains shown)
VH: B2 VH with A23E, T40A, S75T, N77K, S84N
VL: B1 VL with T7S, S14T, D17Q, Q18P, L42Q, K44R, K50R, L88V
notes: Human IgG1 / kappa constant regions; also called H2-LA22 / h2-LA22
B6: Humanized LA22 (H0 + h2) (antibody, human IgG1, V domains shown)
VH: B2 VH with S24A, N25S, T40A, S84N
VL: B1 VL with T7S, S14T, D17Q, Q18P, L42Q, K44R, K50R, L88V
notes: Human IgG1 / kappa constant regions; also called HO-LA22 / h2-LA22

target: T1, EGFR on A431 cell surface (human, UniProt P00533 25-1210); assay: cell-based ELISA on A431 cells, HRP-conjugated goat anti-mouse IgG, TMB, OD450
T1 construct: whole, on cells; also called EGFR expressed on A431 cell surface; EGFR on live A431 cell surface
Method: (§1) 3. Cell ELISA assay A431 cells were seeded at 20,000 cells/well of 96-well plate in DMEM-10% FBS and incubated at 37° C. 5% CO₂. 24 hours later, discard the medium. After two washes with PBS and blocking with 5% skim-milk/PBS for 1 h, wells were incubated with different concentration of mLA22 and hLA22 in 5% skim-milk-PBS for another one hour. After two washes with PBS, wells were then incubated with HRP-conjugated goat anti-mouse IgG secondary antibodies or HRP-conjugated goat anti-human IgG secondary antibodies (Jackson Lab) in 5% skim-milk-PBS for 1 h at room temperature. After washes with PBS, HRP substrate 3, 3′, 5, 5′-tetramethylbenzidine (TMB) solution was added. The reaction was stopped with stop solution (0.1M […]) and absorbance was measured at 450 nm with a microplate reader.

For B1, the “EC50 (read off the curve)” value was about 1 µg/mL.

target: T1, EGFR on A431 cell surface; assay: cell-based ELISA on A431 cells, HRP-conjugated goat anti-human IgG, TMB, OD450
Method: as §1

In the case of B2, the “EC50 (read off the curve)” value is reported as about 1 µg/mL.

target: T2, ECD of rec. EGFR (human, UniProt P00533 25-645); assay: SPR (BIAcore), chip coated with ECD of rec. EGFR
T2 construct: extracellular domain; also called human epidermal factor receptor (EGFR)
From the text: 1. Biacore assay. To test the affinity between human epidermal factor receptor (EGFR) and the present invention of humanized anti-EGFR antibody using BIAcore system which is based on the surface plasmon resonance technique, the chip was coated with ECD of rec. EGFR.

Point of comparison: B5, Kd 12 nM. Against it:
- B1 — 6-fold lower, 2 nM
- B3 — within 1.5-fold, 14 nM
- B4 — within 1.5-fold, 15.4 nM
- B2 — 5.2-fold lower, 2.3 nM
- B6 — within 1.5-fold, 13.2 nM

Point of comparison: B3, koff 0.000146 s⁻¹. Against it:
- B1 — 3.4-fold lower, 4.3e-05 s⁻¹
- B4 — within 1.5-fold, 0.000188 s⁻¹
- B5 — 1.9-fold lower, 7.7e-05 s⁻¹
- B2 — 3.8-fold lower, 3.8e-05 s⁻¹
- B6 — 2.1-fold lower, 6.9e-05 s⁻¹

Point of comparison: B2, kon 16400 M⁻¹ s⁻¹. Against it:
- B1 — within 1.5-fold, 22000 M⁻¹ s⁻¹
- B3 — 1.6-fold lower, 10400 M⁻¹ s⁻¹
- B4 — within 1.5-fold, 12200 M⁻¹ s⁻¹
- B5 — 2.6-fold lower, 6400 M⁻¹ s⁻¹
- B6 — 3.2-fold lower, 5200 M⁻¹ s⁻¹
